In assay [1] the target is His6-HA4-AsLOV2 (SS58 insertion, C450V mutant) (Avena sativa). The assay is described as follows: BLI; Octet RED96e; 6x-histidine tagged OptoMB variant loaded on Ni-NTA sensors, YFP-SH2 in solution at several concentrations; Buffer A (Tris 50 mM pH 8.0, NaCl 150 mM); illumination: 450 nm light (blue LED panel above the plate, lid open); binding and unbinding curves fitted together to a mass-action model; single experiments.

Assay [2] has as its target HA4-AsLOV2 (SS58 insertion, V416L mutant) (Avena sativa). The description is as above.
Assay [3] addresses His6-HA4-AsLOV2 (SS58 insertion, C450V mutant) (Avena sativa). The assay can be described thus: BLI; Octet RED96e; 6x-histidine tagged OptoMB variant loaded on Ni-NTA sensors, YFP-SH2 in solution at several concentrations; Buffer A (Tris 50 mM pH 8.0, NaCl 150 mM); illumination: ambient (ambient laboratory light and the instrument's internal light sufficed to trigger the lit conformation of the light-sensitive constructs); binding and unbinding curves fitted together to a mass-action model; single experiments.

The target of assay [4] is HA4-AsLOV2 (SS58 insertion, V416L mutant) (Avena sativa). Described as above.
Assay [5] addresses His6-SUMO-HA4-AsLOV2 (SS58 insertion, V416I, G528A, N538E mutant) (Avena sativa). Described as above.
Assay [6] concerns the target His6-HA4-AsLOV2 (SS58 insertion): αSH2-OptoMB (Avena sativa). The description is as above.
For assay [7], the target named is T1, OptoMB_(C450V), His-tagged (Avena sativa, UniProt O49003 408-543, C450V). The assay is described as follows: BLI; dark.
In assay [8] the target is T2, OptoMB_(V416L), His-tagged (Avena sativa, UniProt O49003 408-543, V416L). The assay can be described thus: BLI; LIGHT conformation: Octet RED96e with the lid open and a blue LED panel above the plate (for the V416I-G528A-N538E variant pre-illumination); His-tagged OptoMB variants loaded on Ni-NTA sensors, YFP-SH2 in solution; Buffer A (Tris 50 mM pH 8.0, NaCl 150 mM).

For assay [9], the target named is αSH2 OptoMonobody (OptoMB), His-tagged, wild-type AsLOV2 (Avena sativa) (UniProt O49003). The assay is described as above.
Assay [10] concerns the target T1, OptoMB_(C450V), His-tagged. The assay can be described thus: BLI; dark. The source holds these as a separate data set.
Assay [11] concerns the target T2, OptoMB_(V416L), His-tagged. The assay is described as follows: BLI; light.
Assay [12] concerns the target Monobody HA4 (6x-histidine tagged). The assay can be described thus: BLI; Octet RED96e; His-tagged HA4 loaded on Ni-NTA sensors, YFP-SH2 in solution; Buffer A (Tris 50 mM pH 8.0, NaCl 150 mM); state of illumination not given ('–').
The target in assay [13] is T1, OptoMB_(C450V), His-tagged. The assay can be described thus: BLI; DARK conformation: Octet RED96e, no external light source; His-tagged OptoMB_(C450V) loaded on Ni-NTA sensors, YFP-SH2 in solution; Buffer A (Tris 50 mM pH 8.0, NaCl 150 mM).
Assay [14] concerns the target T2, OptoMB_(V416L), His-tagged. The assay is described as follows: BLI; light. This is another data set of the same source.

Values joined by “and” are separate entries in the source; they are usually repeats but may differ in a detail not shown here. Identical values can stand only once.

B1: YFP-SH2 (fusion of yellow fluorescent protein and the SH2 domain of human Abl kinase), purified (domain or fragment)
chain: SLEKHSWYHGPVSRNAAEYLLSSGINGSFLVRESESSPGQRSISLRYEGRVYHYRINTASDGKLYVSSESRFNTLAELVHHHSTVADGLITTLHYPAPKRNKPTVYGVSPNY
For the molecule B1, the dissociation constant (Kd) was 0.27 µM in [1]; 60 µM and 42 µM in assay [2]; 0.06 µM and 0.23 µM in assay [3]; 87 µM in [4]; over 100 µM in [5]; over 100 µM in assay [6]. Moreover, the koff was 0.013 s⁻¹ in assay [1]; 0.2 s⁻¹ and 0.24 s⁻¹ in [2]; 0.006 s⁻¹ and 0.013 s⁻¹ in [3]; 0.25 s⁻¹ in [4]. The kon in assay [1] was 48000 M⁻¹ s⁻¹; in assay [2], 3300 M⁻¹ s⁻¹ and 5800 M⁻¹ s⁻¹; in assay [3], 110000 M⁻¹ s⁻¹ and 56000 M⁻¹ s⁻¹; in assay [4], 2900 M⁻¹ s⁻¹; in [5], under 1000 M⁻¹ s⁻¹; in assay [6], under 1000 M⁻¹ s⁻¹.

B2: YFP-SH2, purified (fusion of YFP and the SH2 domain of human Abl kinase) (domain or fragment)
chain: SLEKHSWYHGPVSRNAAEYLLSSGINGSFLVRESESSPGQRSISLRYEGRVYHYRINTASDGKLYVSSESRFNTLAELVHHHSTVADGLITTLHYPAPKRNKPTVYGVSPNY
With B2, the koff in [7] came out at 0.00599 s⁻¹; in assay [8], 0.23 s⁻¹; in assay [12] it was 0.0145 s⁻¹; in [13], 0.01 s⁻¹; in assay [14] it was 0.254 s⁻¹. Also, the Kd in assay [8] was 63 µM; in assay [9], over 100 µM; in assay [10], 0.0569 µM; in assay [11] it was 86.7 µM; in assay [12], 0.23 µM; in [13] it was 0.19 µM. Besides, the kon was 4000 M⁻¹ s⁻¹ in assay [8], under 1000 M⁻¹ s⁻¹ in [9], 63100 M⁻¹ s⁻¹ in assay [12] and 71000 M⁻¹ s⁻¹ in [13].

The record behind these values is paper PMC7427095 (2020).
